Source: the supplement of paper PMC9112550, “Optimization of the antimicrobial peptide Bac7 by deep mutational scanning” (BMC Biology, 2022)

Each sequence was assayed on Escherichia coli TOP10 (assay: shrunken log2 fold change of peptide-encoding DNA abundance (4.5 h post-induction vs induction); higher = less antimicrobial activity (less host growth inhibition)). Details: time post-induction: 4.5 h; library: site-saturation at positions 5, 18, 19, 20.
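Further: peptides expressed intracellularly from a pBAD plasmid library in pooled LB shake-flask culture, induced with 0.3% L-arabinose, DNA abundance read by NGS, three biological replicates, DESeq2 with apeglm shrinkage.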

Point of comparison: RRIRVRPPRLPRPRPRPVWIPRP, “shrunken log2 fold change” value -0.206. Against it:
- RRIRQRPPRLPRPRPRPRENPRP — higher, 0.0469
- RRIRSRPPRLPRPRPRPSHFPRP — within 0.2 log units, -0.182
- RRIRARPPRLPRPRPRPMFEPRP — higher, 0.3
- RRIRRRPPRLPRPRPRPREVPRP — higher, 0.442
- RRIRCRPPRLPRPRPRPHVGPRP — higher, 0.0562
- RRIRSRPPRLPRPRPRPPMEPRP — within 0.2 log units, -0.117
- RRIRIRPPRLPRPRPRPSEFPRP — within 0.2 log units, -0.177
- RRIRHRPPRLPRPRPRPVADPRP — within 0.2 log units, -0.209
- RRIRCRPPRLPRPRPRPWAMPRP — within 0.2 log units, -0.226
- RRIRVRPPRLPRPRPRPNCVPRP — within 0.2 log units, -0.0661
- RRIRCRPPRLPRPRPRPNYIPRP — lower, -0.84
- RRIRIRPPRLPRPRPRPTSFPRP — within 0.2 log units, -0.11
- RRIRPRPPRLPRPRPRPIHIPRP — within 0.2 log units, -0.405
- RRIRKRPPRLPRPRPRPKMVPRP — within 0.2 log units, -0.031
- RRIRDRPPRLPRPRPRPSNHPRP — lower, -0.548
- RRIRYRPPRLPRPRPRPWDWPRP — within 0.2 log units, -0.0724
- RRIRARPPRLPRPRPRPMVCPRP — higher, 0.396
- RRIRDRPPRLPRPRPRPKQIPRP — within 0.2 log units, -0.0135
- RRIRDRPPRLPRPRPRPGWYPRP — higher, 0.178
- RRIRNRPPRLPRPRPRPYTFPRP — within 0.2 log units, -0.0167
- RRIRPRPPRLPRPRPRPSSTPRP — within 0.2 log units, -0.315
- RRIRRRPPRLPRPRPRPRSRPRP — higher, 0.345
- RRIRIRPPRLPRPRPRPAVCPRP — within 0.2 log units, -0.214
- RRIRNRPPRLPRPRPRPITHPRP — lower, -0.644
- RRIRQRPPRLPRPRPRPSLSPRP — within 0.2 log units, -0.227
- RRIRTRPPRLPRPRPRPLGMPRP — higher, 0.257
- RRIRKRPPRLPRPRPRPIYYPRP — within 0.2 log units, -0.37
- RRIRPRPPRLPRPRPRPWVIPRP — higher, 0.0892
- RRIRTRPPRLPRPRPRPPQHPRP — higher, 0.22
- RRIRQRPPRLPRPRPRPEMGPRP — higher, 0.223
- RRIRCRPPRLPRPRPRPCGAPRP — higher, 0.285
- RRIRWRPPRLPRPRPRPMKYPRP — within 0.2 log units, -0.311
- RRIRVRPPRLPRPRPRPRKEPRP — within 0.2 log units, -0.0286
- RRIRTRPPRLPRPRPRPNVYPRP — lower, -0.683
- RRIRARPPRLPRPRPRPGGKPRP — higher, 0.563
- RRIRYRPPRLPRPRPRPKAIPRP — lower, -0.497
- RRIRDRPPRLPRPRPRPDTHPRP — higher, 0.17
- RRIRARPPRLPRPRPRPAGEPRP — higher, 0.921
- RRIRGRPPRLPRPRPRPPRKPRP — higher, 1.26
- RRIRLRPPRLPRPRPRPHLMPRP — within 0.2 log units, -0.218
- RRIRSRPPRLPRPRPRPWSDPRP — within 0.2 log units, -0.164
- RRIRCRPPRLPRPRPRPEIHPRP — within 0.2 log units, -0.217
- RRIRGRPPRLPRPRPRPNQWPRP — higher, 0.259
- RRIRVRPPRLPRPRPRPLACPRP — higher, 0.214
- RRIRERPPRLPRPRPRPSGCPRP — higher, 0.0787
- RRIRWRPPRLPRPRPRPAKKPRP — higher, 0.0808
- RRIRIRPPRLPRPRPRPNLRPRP — within 0.2 log units, -0.117
- RRIRSRPPRLPRPRPRPHWLPRP — lower, -0.614
- RRIRQRPPRLPRPRPRPAMVPRP — higher, 0.206
- RRIRFRPPRLPRPRPRPYEPPRP — within 0.2 log units, -0.204
- RRIRFRPPRLPRPRPRPKTTPRP — higher, 0.142
- RRIRPRPPRLPRPRPRPFTGPRP — within 0.2 log units, -0.0818
- RRIRPRPPRLPRPRPRPCWTPRP — within 0.2 log units, -0.397
- RRIRTRPPRLPRPRPRPSLDPRP — within 0.2 log units, -0.286
- RRIRYRPPRLPRPRPRPIHIPRP — within 0.2 log units, -0.0433
- RRIRYRPPRLPRPRPRPFFRPRP — within 0.2 log units, -0.019
- RRIRERPPRLPRPRPRPALGPRP — higher, 0.37
- RRIRMRPPRLPRPRPRPQSMPRP — higher, 0.143
- RRIRIRPPRLPRPRPRPYEFPRP — higher, 0.00826
- RRIRCRPPRLPRPRPRPIVAPRP — higher, 0.0801
- RRIRPRPPRLPRPRPRPTPTPRP — higher, 0.483
- RRIRGRPPRLPRPRPRPCFYPRP — higher, 0.156
- RRIRVRPPRLPRPRPRPDQAPRP — within 0.2 log units, -0.038
- RRIRHRPPRLPRPRPRPSEIPRP — within 0.2 log units, -0.0493
- RRIRNRPPRLPRPRPRPAYQPRP — within 0.2 log units, -0.146
- RRIRGRPPRLPRPRPRPFMQPRP — higher, 0.165
- RRIRKRPPRLPRPRPRPSPCPRP — higher, 0.13
- RRIRHRPPRLPRPRPRPESAPRP — higher, 0.368
- RRIRDRPPRLPRPRPRPRPLPRP — higher, 0.39
- RRIRPRPPRLPRPRPRPETLPRP — within 0.2 log units, -0.0144
- RRIRWRPPRLPRPRPRPDPVPRP — higher, 0.0369
- RRIRDRPPRLPRPRPRPIPIPRP — within 0.2 log units, -0.0457
- RRIRSRPPRLPRPRPRPGMWPRP — higher, 0.0949
- RRIRYRPPRLPRPRPRPKLLPRP — within 0.2 log units, -0.296
